Results reported in US7919577B2, “Adrenocorticotropic hormone analogs and related methods” (Colorado Seminary, priority 2004, dated 2011).
No end group written: not given here.

Target: T1, adrenal ACTH receptors such as MC-2R (explanted adrenal membrane) (Mus musculus, UniProt Q64326+Q9D159)
T1 construct: the adrenal halves were macerated or otherwise dissociated using Dounce Homogenizer to form a membrane fraction; from tissue; host or cells: mouse adrenal glands (explanted, homogenised to a membrane fraction)
Experiment: in vitro Serum-free Adrenal Competitive Binding Assay (Example 3)
Settings: cold peptide at 10 nM, 100 nM, 1000 nM; CPM; FIG. 3
Excerpt: ACTH analog compounds that bind to adrenal membrane with a greater affinity than endogenous unmodified ACTH, and are able to displace unmodified ACTH can be identified using an in vitro Serum-free Adrenal Competitive Binding Assay (Example 3). […] A higher CPM level indicates the presence of greater amounts of the radiolabelled compound. […] Column 220 indicates the level of radio-labeled unmodified mACTH(1-24) detected after combining the explanted adrenal membrane with only the radio-labeled mACTH(1-24) for 2 hours (no competitive binding). Columns 230, 240, and 250 show the results of competitive binding assays for binding of non-radio-labeled (“cold”) mACTH(1-24) to displace the radio-labeled mACTH(1-24) from the explanted adrenal membrane (measured in column 220) by competitive binding to receptors such as MC-2R on the adrenal membrane. […]
ACTH analogs with the ability to bind adrenal receptors with a greater affinity than compounds with known adrenal binding activity (preferably ACTH) can also be identified by performing an in vitro Adrenal Competitive Binding Assay, whereby measurement of the reduction in the amount of the radiolabelled adrenal-binding compound (e.g., ACTH) is measured at various concentrations of non-radio-labeled ACTH analog test compound in a medium containing explanted adrenal membrane. […]

T1 sequence (Q64326 whole entry): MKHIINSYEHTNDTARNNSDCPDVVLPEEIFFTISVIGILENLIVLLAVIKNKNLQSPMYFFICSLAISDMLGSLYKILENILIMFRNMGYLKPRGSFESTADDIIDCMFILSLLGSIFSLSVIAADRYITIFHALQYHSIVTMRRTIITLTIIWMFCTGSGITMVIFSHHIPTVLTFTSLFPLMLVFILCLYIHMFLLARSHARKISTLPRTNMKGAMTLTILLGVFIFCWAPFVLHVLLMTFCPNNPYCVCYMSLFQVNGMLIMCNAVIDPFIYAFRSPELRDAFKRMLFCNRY
T1 sequence (Q9D159 whole entry): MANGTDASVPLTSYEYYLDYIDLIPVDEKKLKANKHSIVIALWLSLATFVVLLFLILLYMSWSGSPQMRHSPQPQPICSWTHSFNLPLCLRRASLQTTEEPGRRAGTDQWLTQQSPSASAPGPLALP

With “N-Ser^1-Tyr-Ser-Met-Glu^5-His-Phe-Arg-Trp-Gly^10-Lys-Pro-Val-Gly-Lys^15-Arg-Ala-Ala-Trp-Val^20-Lys-Val-Tyr-Pro-Ac (SYSMEHFRWGKPVGKRAAWVKVYP; not fully specified; printed as N-Ser1-Tyr-Ser-Met-Glu5-His-Phe-Arg-Trp-Gly10-Lys-Pro-Val-Gly-Lys15-Arg-Ala-Ala-Trp-Val20-Lys-Val-Tyr-Pro-Ac) [AT814]” the “displacement of radio-labeled mACTH(1-24) from explanted adrenal membrane” value was “displacement of the radio-labeled mACTH(1-24)”.
